Assay results published in patent US20180291110A1 (Hoffmann-La Roche, published 2018).
Where a chain is given by its changes, count along the chain named.

B1: 2/99 VH0(rb)/VL9-NYA (antibody, V domains shown)
VH: QSMEESGGRLVTPGTPLTLTCTVSGFSLSSYAMSWVRQAPGKGLEWIGYIWSGGSTDYASWAKGRFTISKTSTTVDLKITSPTTEDTATYFCARRYGTSYPDYGDANGFDPWGPGTLVTVSS
VL: AIQLTQSPSSLSASVGDRVTITCRASQSISSYLAWYQQKPGKAPKLLIYRASTLASGVPSRFSGSGSGTDFTLTISSLQPEDFATYYCQQNYASSNVDNTFGGGTKVEI
B2: 2/99 VH20/VL8 (antibody, V domains shown)
VH: QSMQESGPGLVKPSQTLSLTCTVSGFSLSSYAMSWIRQHPGKGLEWIGYIWSGGSTDYAPSLKSRVTISVDTSKNQVSLKLSSVTAADTAVYYCARRYGTSYPDYGDANGFDPWGQGTLVTVSS
VL: AYQLTQSPSSLSASVGDRVTITCRASQSISSYLSWYQQKPGKAPKLLIYRASTLASGVPSRFSGSGSGTDFTLTISSLQPEDFATYYCQQSYSSSNVDNTFGGGTKVEIK
B3: 2/99 VH7/VL10 (antibody, V domains shown)
VH: QQLVETGGGLIQPGGSLRLSCAASGFSLSSYAMSWVRQAPGKGLEWIGYIWSGGSTDYASWAKGRFTISRDNSKNTLYLQMNSLRAEDTAVYYCARRYGTSYPDYGDANGFDPWGQGTLVTVSS
VL: B2 VL with A1D, Y2I, L4M, G66R
B4: 2/99 VH22/VL8 (antibody, V domains shown)
VH: B2 VH with I36V, P60S, S61W, L62A
VL: B2 VL
B5: 2/99 VH21/VL8 (antibody, V domains shown)
VH: B2 VH with P60S, S61W, L62A
VL: B2 VL
B6: 2/99 VH8/VL10 (antibody, V domains shown)
VH: QQLVETGGGLIQPGGSLRLSCAASGFSLSSYAMSWVRQAPGKGLEWIGYIWSGGSTDYASWAKGRFTISKTSTTLYLQMNSLRAEDTAVYYCARRYGTSYPDYGDANGFDPWGQGTLVTVSS
VL: B2 VL with A1D, Y2I, L4M, G66R
B7: 2/99 VH1/VL10 (antibody, V domains shown)
VH: B3 VH with Q1V, I47V, S60D, W61S, A62V
VL: B2 VL with A1D, Y2I, L4M, G66R
B8: 2/99 VH23-DANG/VL8 (antibody, V domains shown)
VH: QSMQESGPGLVKPSQTLSLTCTVSGFSLSSYAMSWIRQHPGKGLEWIGYIWSGGSTDYASWAKSRVTISKTSTTVSLKLSSVTAADTAVYYCARRYGTSYPDYGDANGFDPWGQGTLVTVSS
VL: B2 VL
B9: 2/99 VH2/VL10 (antibody, V domains shown)
VH: EVQLVETGGGLIQPGGSLRLSCAASGFSLSSYAMSWVRQAPGKGLEWVGYIWSGGSTDYADSVKGRFTISRDNSKNTLYLQMNSLRAEDTAVYYCARRYGTSYPDYGDANGFDPWGQGTLVTVSS
VL: B2 VL with A1D, Y2I, L4M, G66R
B10: 2/99 VH9/VL10 (antibody, V domains shown)
VH: B3 VH with V4L, T6S, I11V, S27T, L28F, I47V, S60D, W61S, A62V, R96K
VL: B2 VL with A1D, Y2I, L4M, G66R
B11: 2/99 VH5/VL10 (antibody, V domains shown)
VH: B3 VH with Q2S, L3M, V4E, I47V, S60D, W61S, A62V, Q116P
VL: B2 VL with A1D, Y2I, L4M, G66R
B12: 2/99 VH6/VL10 (antibody, V domains shown)
VH: B3 VH with S60D, W61S, A62V
VL: B2 VL with A1D, Y2I, L4M, G66R

molecular target: T1, human transferrin receptor (recombinant, for surface plasmon resonance) (human, UniProt P02786 89-760); test: SPR 25C
T1 construct: also called huTfR; human transferrin receptor-biotinylated
T1 sequence (P02786 89-760 limits assumed): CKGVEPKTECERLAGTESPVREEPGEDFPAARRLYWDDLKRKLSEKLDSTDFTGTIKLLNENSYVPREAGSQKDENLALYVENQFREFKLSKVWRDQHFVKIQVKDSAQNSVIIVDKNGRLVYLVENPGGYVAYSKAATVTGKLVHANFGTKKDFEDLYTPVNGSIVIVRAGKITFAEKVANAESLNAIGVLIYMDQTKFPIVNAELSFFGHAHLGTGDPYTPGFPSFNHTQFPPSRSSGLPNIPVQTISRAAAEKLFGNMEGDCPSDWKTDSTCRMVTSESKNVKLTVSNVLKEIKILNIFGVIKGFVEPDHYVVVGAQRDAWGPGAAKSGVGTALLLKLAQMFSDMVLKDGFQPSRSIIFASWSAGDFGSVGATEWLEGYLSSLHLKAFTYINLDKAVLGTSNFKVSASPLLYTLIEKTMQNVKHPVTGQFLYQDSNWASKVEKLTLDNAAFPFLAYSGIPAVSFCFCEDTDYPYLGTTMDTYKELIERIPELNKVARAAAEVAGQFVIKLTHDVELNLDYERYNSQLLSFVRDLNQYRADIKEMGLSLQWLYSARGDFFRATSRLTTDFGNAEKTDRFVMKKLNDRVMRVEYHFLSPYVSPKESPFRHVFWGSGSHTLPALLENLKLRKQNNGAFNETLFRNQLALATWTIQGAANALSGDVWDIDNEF

Binder | koff
B1 | 0.00141 s⁻¹
B2 | 0.00658 s⁻¹
B3 | 0.00264 s⁻¹
B4 | 0.00165 s⁻¹
B5 | 0.00174 s⁻¹
B6 | 0.00173 s⁻¹
B7 | 0.00677 s⁻¹
B8 | 0.000941 s⁻¹
B9 | 0.00649 s⁻¹
B10 | 0.00719 s⁻¹
B11 | 0.00653 s⁻¹
B12 | 0.00455 s⁻¹
